The record followed here is patent US20200239586A1.

One assay deals with T1, human Fn14 (human) (UniProt Q9NP84).
T1 sequence: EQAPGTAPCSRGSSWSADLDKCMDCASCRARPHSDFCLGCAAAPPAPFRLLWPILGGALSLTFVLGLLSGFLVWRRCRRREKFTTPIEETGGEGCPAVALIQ
As to the kind of experiment: cell-based or functional assay.

Assay [1] has as its target T2, Histidine tagged hFn14 extracellular domain, bacterially expressed (human) (UniProt Q9NP84).
T2 sequence: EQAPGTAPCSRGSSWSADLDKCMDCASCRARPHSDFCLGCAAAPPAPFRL
As to the kind of experiment: SPR (ProteOn XPR36), mAb coupled to chip, His-tagged hFn14 analyte, Langmuir 1:1 fit.

Assay [2] concerns the target synthetic peptide hFn14 sub-domain 2 (human). The assay is described as follows: ELISA on biotinylated sub-domain 2 peptide, mAb at 5 ng/ml. (In general: In an ELISA, binding on a coated surface is turned into a signal by an enzyme label.)
The target in assay [3] is T3, synthetic peptide hFn14 sub-domain 3 (human).
T3 sequence (peptide, biotin on the added C-terminal lysine): ASCRARPHSDFCLGK
As to the kind of experiment: ELISA on biotinylated sub-domain 3 peptide, mAb at 0.2 ug/ml.

Chain of synthetic peptide hFn14 sub-domain 2 (human) (peptide, as listed by the source): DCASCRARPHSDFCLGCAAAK

B1: ITEM-4 (antibody, from another filing, V domains shown)
VH: QVQLQQSGPELVKPGASVKMSCKASGYTFTDFIIAWVKQRTGQGLEWIGEIYPGTGRTYYSEKFRGKATLTADKSSNTAYMQLSSLTSVDSAVYFCARRTIYYDYDGDYWGQGTTLTVSS
VL: DIVMTQAAFSNPVTLGTSASISCRSSKSLLHSNGITYLYWYLQKPGQSPQLLIYQMSNLASGVPDRFSSSGSGTDFTLRISRVEAEDVGVYYCAHNLELPWTFGGGTKLELK
In the assay with human Fn14 (human), B1 came in with a % Agonist, IL-8 secretion by A375 cells of 8% and a % Antagonist, IL-8 secretion by A375 cells of 97%. In assay [1], this molecule yielded a Kd of 1.68 nM, a koff of 0.000864 s⁻¹ and a kon of 510000 M⁻¹ s⁻¹.

B2: ITEM-1 (antibody, from another filing, V domains shown)
VH: EVKLEESGGGLVQPGGSMKLSCVASGFSFSNYWMNWVRQSPEKGLEWVAEIRLKSNNYATHYAESVKGRFTISRHDSKSSVYLQMNNLRAEDTGIYYCTRAYADYFDYWGQGTTLTVSS
VL: DIVLTQSPASLVVSLGQRATISCRASQSVSTSTYSYMHWYQQKPGQPPKILIKYASNLESGVPARFSGSGSGTDFTLNIHPVEEEDTATYYCQHSWEIPYTFGGGTKLEIKR
In the assay with human Fn14 (human), B2 yielded a % Agonist, IL-8 secretion by A375 cells of 21% and a % Antagonist, IL-8 secretion by A375 cells of 9%. In assay [2], this molecule gave a % decrease in binding compared to CRCBT-06-001 and CRCBT-06-002 of 68%. This molecule yielded a % decrease in binding compared with CRCBT-06-005 in assay [3] of 76%. Moreover, in assay [1], the Kd was 4.1 nM, the koff is 0.00147 s⁻¹ and the kon came out at 358000 M⁻¹ s⁻¹.

By Kd is commonly meant the concentration at which binding is half-saturated. Higher therefore signals lower affinity. By koff is commonly meant a measure of how fast the partners let go of each other. A low value points to slow dissociation. As usually defined, the kon is the second-order rate constant of association. A high value points to faster complex formation.
